Numbering of substitutions follows the chain as printed. Names may count otherwise. No end group written: not given here.
B1: Mint1^Y633A C-terminal construct, amino acids 453-839 (domain or fragment)
chain: DPEDLIDGIIFAANYLGSTQLLSDKTPSKNVRMMQAQEAVSRIKTAQKLAKSRKKAPEGESQPMTEVDLFISTQRIKVLNADTQEPMMDHPLRTISYIADIGNIVVLMARRRMPRSNSQENVEASHPSQDAKRQYKMICHVFESEDAQLIAQSIGQAFSVAYQEFLRANGINPEDLSQKEASDLLNTQDMYNDDLIHFSKSENCKDVFIEKQKGEILGVVIVESGWGSILPTVIIANMMHGGPAEKSGKLNIGDQIMSINGTSLVGLPLSTCQSIIKGLKNQSRVKLNIVRCPPVTTVLIRRPDLRYQLGFSVQNGIICSLMRGGIAERGGVRVGHRIIEINGQSVVATPHEKIVHILSNAVGEIHMKTMPAAMYRLLTAQEQPVYI
B2: Mint1^WT C-terminal construct, amino acids 453-839 (domain or fragment)
chain: B1 chain with A181Y
B3: Mint1^Y549A/F610A C-terminal construct, amino acids 453-839 (domain or fragment)
chain: B1 chain with Y97A, F158A, A181Y

Assays:
Assay in all cases: fluorescence polarisation
TAMRA-PS1-10mer = target: TAMRA-PS1-10mer
[1] = target: T1, Mint1^Y549A/F610A C-terminal construct, amino acids 453-839 (rat, UniProt O35430 453-839, Y549A | F610A)
T1 sequence (looked up): B1 chain with Y97A, F158A, A181Y

[2] = target: T2, Mint1^WT C-terminal construct, amino acids 453-839 (rat, UniProt O35430 453-839)
T2 sequence (looked up): B1 chain with A181Y

[3] = target: T3, Mint1^Y633A C-terminal construct, amino acids 453-839 (rat, UniProt O35430 453-839, Y633A)
T3 sequence (looked up): B1 chain

| Binder | Kd (TAMRA-PS1-10mer) | Kd [1] | Kd [2] | Kd [3] |
| --- | --- | --- | --- | --- |
| B1 | 139 µM | – | – | – |
| B2 | 358 µM | – | – | – |
| B3 | 301 µM | – | – | – |
| {TAMRA}-NNGQNGYENPTYKFFEQMQN [TAMRA-APP17-mer] | – | 382 ± 12.5 µM | 282 ± 8.3 µM | 14.5 ± 0.74 µM |
| {TAMRA}-NNGLSSGGRARHSYHHPDQDHWC [TAMRA-VGCC2.2-20mer] | – | 1460 ± 25.2 µM | 619 ± 57.9 µM | – |
